The source of these data is the supplement of paper PMC7877785.

± gives the uncertainty stated by the source.

The data set can be described thus: self-splicing fitness, log relative to wild type (ln ratio); higher = more splicing; Tetrahymena group I intron in knt gene, E. coli kanamycin selection, DiMSum; sequences stand for … in CUCUCU…GGAGGGAAAAGUUAUCAGGCAUGCACCUGGUAGCUAGUCUUUAAACCAAUAGAUUGCAUCGGUUUAAAAGGCAAGACCGUCAAAUUGCGGGAAAGGGGUCAACAGCCGUUCAGUACCAAGUCUCAGGGGAAACUUUGAGAUGGCCUUGCAAAGGGUAUGGUAAUAAGCUGACGGACAUGGUCCUAACCACGCAGCCAAGUCCUAAGUCAACAGAUCUUCUGUUGAUAUGGAUGCAGUUCACAGACUAAAUGUCGGUCGGGGAAGAUGUAUUCUUCUCAUAAGAUAUAGUCGGACCUCUCCUUAAUGGGAGCUAGCGGAUGAAGUGAUGCAACACUGGAGCCGCUGGGAACUAAUUUGUAUGCGAAAGUAUAUUGAUUAGUUUUGGAGUACUCGUGGUCG
The procedure, abridged: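 Six replicate transformations of E. coli BL21(DE3) with a pET-22b(+) library were grown overnight at 37°C or 30°C. The library randomised all eight P1ex-region intron nucleotides, the intron lying in the knt kanamycin-resistance gene, and plates were LB agar with or without 25 μg/mL kanamycin plus 100 μg/mL carbenicillin, 50 μM IPTG and 0.2% rhamnose. Pooled colonies were amplicon-sequenced on an Illumina HiSeq 2500, and fitness is the DiMSum error-weighted combination of wild-type-normalised replicate fold changes, kanamycin versus none.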

As for AUAGAGCAAUAUUACGCCGG, the “self-splicing fitness (ln)” value (30 °C) is -2.52 ± 0.31 and the “self-splicing fitness (ln)” value (37 °C) was -1.94 ± 0.47.

In the case of AUAGAGCAAUAUUACGCUGC, the “self-splicing fitness (ln)” value is -2.86 ± 0.29 (30 °C) and -1.05 ± 0.2 (37 °C).

For the sequence AUAGAGCAAUAUUACGCUUA, the “self-splicing fitness (ln)” value reads like this: (30 °C) -0.78 ± 0.084; (37 °C) 0.522 ± 0.16.

Turning to AUAGAGCAAUAUUACGCUUU, the “self-splicing fitness (ln)” value (30 °C) was -1.68 ± 0.13 and the “self-splicing fitness (ln)” value (37 °C) is -1.58 ± 0.15.

Take AUAGAGCAAUAUUACGGAAU: the “self-splicing fitness (ln)” value is, setting by setting: (30 °C) -1.26 ± 0.15; (37 °C) -1.24 ± 0.18.

For the sequence AUAGAGCAAUAUUACGGCAU, the “self-splicing fitness (ln)” value by setting is: (30 °C) 0.19 ± 0.084; (37 °C) 0.738 ± 0.12.

In the case of AUAGAGCAAUAUUACGGCCG, the “self-splicing fitness (ln)” value by setting is: (30 °C) -0.599 ± 0.24; (37 °C) -1.36 ± 0.45.

In the case of AUAGAGCAAUAUUACGGGCG, the “self-splicing fitness (ln)” value is -3 ± 0.22 (30 °C) and -2.13 ± 0.31 (37 °C).

For AUAGAGCAAUAUUACGGUUG, the “self-splicing fitness (ln)” value is -3.21 ± 0.23 (30 °C) and -1.92 ± 0.22 (37 °C).

Turning to AUAGAGCAAUAUUACGGUUU, the “self-splicing fitness (ln)” value (30 °C) was -0.828 ± 0.071 and the “self-splicing fitness (ln)” value (37 °C) was -0.331 ± 0.098.

With AUAGAGCAAUAUUACGUAAA, under “37 °C”, the “self-splicing fitness (ln)” value was -1.57 ± 0.24.

As to AUAGAGCAAUAUUACGUCAU, the “self-splicing fitness (ln)” value is, setting by setting: (30 °C) -0.913 ± 0.087; (37 °C) 0.145 ± 0.1.

On to AUAGAGCAAUAUUACGUCGU, for which the “self-splicing fitness (ln)” value was -0.0699 ± 0.096 (30 °C) and -0.158 ± 0.1 (37 °C).

Consider AUAGAGCAAUAUUACGUCUG, for which the “self-splicing fitness (ln)” value is, setting by setting: (30 °C) -0.796 ± 0.098; (37 °C) -0.654 ± 0.14.

In the case of AUAGAGCAAUAUUACGUGUA, the “self-splicing fitness (ln)” value (30 °C) is -3.02 ± 0.18 and the “self-splicing fitness (ln)” value (37 °C) is -1.17 ± 0.16.

On to AUAGAGCAAUAUUACGUUGU, for which the “self-splicing fitness (ln)” value was -1.96 ± 0.066 (30 °C) and -1.52 ± 0.07 (37 °C).

As for AUAUAGCAAUAUUACGAAAG, the “self-splicing fitness (ln)” value (30 °C) is -3.28 ± 0.25 and the “self-splicing fitness (ln)” value (37 °C) was -2.08 ± 0.38.

Take AUAUAGCAAUAUUACGCAAC: the “self-splicing fitness (ln)” value is -3.95 ± 0.32 (30 °C) and -1.96 ± 0.27 (37 °C).

With AUAUAGCAAUAUUACGCACA, the “self-splicing fitness (ln)” value was -0.73 ± 0.19 (30 °C) and -0.28 ± 0.23 (37 °C).

On to AUAUAGCAAUAUUACGCGUU, for which the “self-splicing fitness (ln)” value is -1.67 ± 0.2 (30 °C) and -1.61 ± 0.24 (37 °C).

For the sequence AUAUAGCAAUAUUACGCUAC, the “self-splicing fitness (ln)” value (30 °C) is -2.34 ± 0.33.

Consider AUAUAGCAAUAUUACGGAUU, for which the “self-splicing fitness (ln)” value is, setting by setting: (30 °C) -1.46 ± 0.14; (37 °C) -1.26 ± 0.22.

AUAUAGCAAUAUUACGGCUU: the “self-splicing fitness (ln)” value runs as follows: (30 °C) 0.0949 ± 0.099; (37 °C) 0.269 ± 0.12.

Turning to AUAUAGCAAUAUUACGGUUA, the “self-splicing fitness (ln)” value runs as follows: (30 °C) -1.12 ± 0.13; (37 °C) -0.372 ± 0.12.

As for AUAUAGCAAUAUUACGUAAU, the “self-splicing fitness (ln)” value was -1.02 ± 0.073 (30 °C) and -0.751 ± 0.12 (37 °C).

AUAUAGCAAUAUUACGUACU: the “self-splicing fitness (ln)” value (30 °C) is -0.531 ± 0.16 and the “self-splicing fitness (ln)” value (37 °C) was -0.188 ± 0.19.

With AUAUAGCAAUAUUACGUAGU, the “self-splicing fitness (ln)” value (30 °C) was -2.39 ± 0.14 and the “self-splicing fitness (ln)” value (37 °C) was -0.774 ± 0.14.

Take AUAUAGCAAUAUUACGUAUA: the “self-splicing fitness (ln)” value is -2.12 ± 0.23 (30 °C) and -0.454 ± 0.17 (37 °C).

For the sequence AUAUAGCAAUAUUACGUAUC, the “self-splicing fitness (ln)” value runs as follows: (30 °C) -3.41 ± 0.3; (37 °C) -1.92 ± 0.35.

On to AUAUAGCAAUAUUACGUCUA, for which the “self-splicing fitness (ln)” value reads like this: (30 °C) -0.735 ± 0.12; (37 °C) -0.495 ± 0.12.

As for AUAUAGCAAUAUUACGUCUC, the “self-splicing fitness (ln)” value (30 °C) is -3.22 ± 0.36 and the “self-splicing fitness (ln)” value (37 °C) is -1.51 ± 0.28.

As for AUAUAGCAAUAUUACGUGUA, the “self-splicing fitness (ln)” value (30 °C) was -2.27 ± 0.36 and the “self-splicing fitness (ln)” value (37 °C) is -2.01 ± 0.25.

With AUAUAGCAAUAUUACGUUAC, the “self-splicing fitness (ln)” value was -3.05 ± 0.29 (30 °C) and -2.33 ± 0.24 (37 °C).

Consider AUCAAGCAAUAUUACGAAGG, for which the “self-splicing fitness (ln)” value reads like this: (30 °C) -3.36 ± 0.19; (37 °C) -2.96 ± 0.26.
